Measurements from US20230039279A1, “INFLAMMATION-RESPONSIVE ANTI-INFLAMMATORY HYDROGELS” (Nanyang Technological University, priority 2019, published 2023).
Entries after “also recorded” stand apart in the source; their conditions may differ. Each block holds one compound with its values, some of them ahead of it.

Legend:
MMP-9 [1] = assay: PMA skin inflammation mouse model, MMP-9 quantification in skin tissue by ELISA; type: in vivo; conditions: skin tissue at injection site
Description: (§1) We established a mouse model of skin inflammation using phorbol 12-myristate 13-acetate (PMA) as a stimulant (FIG. 12A) which could induce the upregulation of MMPs captured by MMPSense probe. At the PMA injection sites 24 hours post PMA injection, we observed a red area whose extent was associated with the increase in PMA amounts injected (FIG. 12B). […] In addition, there was a basal of amount of MMP which generated the lowest fluorescent signal at PMA-free PBS buffer injection site. Thus, as more PMA was subcutaneously injected, the fluorescent intensity rose; and more importantly this increase in signal intensity correlated with the extent of the red area on the dorsal side of mice. Protein expression was also studied as skin tissue at the PMA injection sites were retrieved for MMP-9 quantification using ELISA kit (FIG. 12E). […] Overall, PMA subcutaneous injection with increasing amounts could induce subcutaneous inflammation with increasing levels of severity, resulting in more MMP-9 secretion.

MMPs = assay: PMA skin inflammation mouse model, MMP activity by MMPSense fluorescent imaging; type: in vivo; conditions: 24 hours after subcutaneous PMA injection
Description: as §1

MMP-9 [2] = target: T1, MMP-9 (Homo sapiens, UniProt P14780); assay: Protease specificity of peptide anchor (MMP-9 versus Cathepsin B and HNE); type: biochemical
Text: A) The cumulative liberation of ibuprofen (LIbu) increased corresponding to the increase in the MMP-9 concentrations. Absence of diffusion-driven basal release in the absence of MMP9 protease (bottom line). B) The specificity of GPRSLSGRRCG (SEQ ID NO: 20) sensitivity to MMP-9 compared to Cathepsin B and HNE. Error bars represent standard error of the means of n=4 replicates.
FIG. 9 supports the hypothesis that protease-sensitive drug release can be achieved from an ibuprofen-conjugated PEG hydrogel upon exposure to clinically relevant protease concentration of 1 ug/ml. […] LC-MS analysis confirmed the presence of the liberated ibuprofen bearing fragment (ibu-GPQG, LC peak at elution time of 14.6 min, MS peak at m/z=546.20) in the supernatant collected after 2 days of hydrogel exposure to MMP9 solution (FIG. 9B). In contrast, this peak is absent from the supernatant collected when the hydrogel was exposed to a control buffer without MMP9. Since the concentration of active MMP9 in human wound fluid falls within the range of 0.3-4.8 μg/ml, our data in FIG. 10A support the feasibility of drug release at a clinically relevant protease concentration.
Target sequence in this assay (P14780 94-707): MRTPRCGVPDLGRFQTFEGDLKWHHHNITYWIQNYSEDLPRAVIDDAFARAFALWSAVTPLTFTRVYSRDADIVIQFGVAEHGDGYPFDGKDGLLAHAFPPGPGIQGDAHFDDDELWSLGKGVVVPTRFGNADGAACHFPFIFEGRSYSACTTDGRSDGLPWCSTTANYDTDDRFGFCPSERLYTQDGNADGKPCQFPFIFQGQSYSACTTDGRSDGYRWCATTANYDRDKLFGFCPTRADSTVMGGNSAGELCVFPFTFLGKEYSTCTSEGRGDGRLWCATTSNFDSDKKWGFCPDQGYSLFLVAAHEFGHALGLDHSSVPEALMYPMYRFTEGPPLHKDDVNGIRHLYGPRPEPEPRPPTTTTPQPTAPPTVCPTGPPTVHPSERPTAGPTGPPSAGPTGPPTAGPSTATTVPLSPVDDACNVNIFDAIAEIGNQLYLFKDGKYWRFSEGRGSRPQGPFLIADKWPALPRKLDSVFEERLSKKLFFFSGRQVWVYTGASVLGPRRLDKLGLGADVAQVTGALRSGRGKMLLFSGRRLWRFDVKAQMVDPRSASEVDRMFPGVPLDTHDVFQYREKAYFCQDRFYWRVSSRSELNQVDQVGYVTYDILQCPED

MMP-9 [3] = target: T1, MMP-9; assay: MMP-9 cleavability of hybrid hydrogels (released particles seen under optical microscope); type: biochemical; design: purchased Merck; conditions: 3 μg/ml MMP-9 in PBS, 37° C., 20 hours
Description: Each hybrid hydrogel of 20 μL volume in a 500 μL Eppendorf tube was incubated at 37° C. with 3 μg/ml of MMP-9 (83 kDa, Merck) in PBS buffer (DPBS/modified, without calcium and magnesium, HyClone™). In a control experiment, another hybrid hydrogel with the same composition was immersed in PBS buffer without MMP-9. After 20 hours of incubation, the medium surrounding the hybrid hydrogel was sampled onto a cover slip and observed under an optical microscope (Olympus CKX53SF, Japan) to inspect for the presence of released particles.
The selected concentration of MMP-9 is within the range of MMP-9 expression in clinical wound fluids and synovial fluids of patients with rheumatoid arthritis and osteoarthritis [Ladwig, G. P. et al. Wound Repair and Regeneration 10(1) 26-37 (2002); Li, Z. et al. Journal of Diabetes and its Complications 27(4) 380-382 (2013)]. In a typical successful cleavage by MMP-9, the photographs of vials B1 and B2 in FIG. 2 show the appearance of a hybrid hydrogel, which had the same composition as that in vial A1, after prolonged exposure to a buffer with and without MMP-9 respectively. […] The optical microscope image C1 verified the presence of ibu-PLGA particles in the resulting liquid mixture of vial B1 confirming the successful digestion of this hybrid hydrogel by MMP-9. In contrast, MMP-9-free PBS buffer added after gelation was observed as a clear liquid phase in vial B2. The optical microscope image C2 also confirmed the absence of any released lbu-PLGA particles in vial B2.
Target sequence in this assay (P14780 107-707 limits assumed): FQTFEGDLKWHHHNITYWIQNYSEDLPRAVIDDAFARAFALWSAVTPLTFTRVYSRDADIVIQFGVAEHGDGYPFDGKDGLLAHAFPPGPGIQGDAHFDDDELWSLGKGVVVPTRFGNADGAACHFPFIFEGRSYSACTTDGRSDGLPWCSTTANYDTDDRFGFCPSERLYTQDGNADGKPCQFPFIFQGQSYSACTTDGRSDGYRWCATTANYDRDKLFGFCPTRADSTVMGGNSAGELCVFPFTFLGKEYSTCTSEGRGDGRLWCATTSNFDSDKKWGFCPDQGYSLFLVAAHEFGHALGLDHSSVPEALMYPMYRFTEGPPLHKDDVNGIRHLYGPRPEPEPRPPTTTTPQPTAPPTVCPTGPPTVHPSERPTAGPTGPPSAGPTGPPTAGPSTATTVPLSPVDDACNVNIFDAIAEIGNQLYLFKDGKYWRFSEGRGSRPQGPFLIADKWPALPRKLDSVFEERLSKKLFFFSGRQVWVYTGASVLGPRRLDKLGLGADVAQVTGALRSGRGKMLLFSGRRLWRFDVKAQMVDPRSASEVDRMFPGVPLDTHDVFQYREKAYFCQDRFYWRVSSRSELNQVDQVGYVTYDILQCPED

[4] = Tube-inversion gelation screening of peptide crosslinkers with PEG-VS and ibu-PLGA particles; type: physicochemical
Description: Peptide-crosslinked hydrogels were prepared by reacting 4-arm poly(ethylene glycol)-vinyl sulfone (PEG-VS) (20 kDa, Sigma Aldrich, St. Louis, Mo., USA) with bis-cysteine peptides (Genscript, Hong Kong) in stoichiometric ratio. Each precursor was dissolved in either triethanolamine (TEOA) buffer (0.3M) or PBS/NaOH buffer (pH=10). Typically, to prepare 117 μL of peptide-crosslinked hydrogels with 4.2% (w/v) PEG content, 5 mg of PEG-VS was dissolved in 100 μL of a buffer solution in a glass vial and mixed with a stoichiometric amount of a peptide crosslinker dissolved in 17 μL of the same buffer solution. Hydrogels with 4.2% (w/v) PEG content were evaluated in the preliminary screening of peptide crosslinkers. Hydrogels with 1.7% (w/v) PEG content were used in all subsequent in vitro and in vivo experiments. To form hybrid hydrogels consisting of PLGA particles (with or without ibuprofen) embedded in peptide-crosslinked hydrogels, the aforementioned precursors were dissolved separately in a buffer solution containing suspended PLGA particles at a concentration of 5% (w/v).
To identify an optimal peptide crosslinker for GEL-iP, we performed qualitative screening of 8 peptide sequences (Table 3 and FIG. 14) by evaluating the influence of substrate and spacer choices on the gelation and cleavability of hybrid hydrogels. In addition, buffers in which gelation occurred was also investigated because their environmental pH might affect the deprotonation of thiols and subsequently influence the crosslinking process. For each combination of substrate, spacer and buffer, the feasibility of gelation was visually inspected via a tube-inversion method. A stoichiometric amount of a peptide crosslinker was added to a glass vial containing a mixture of PEG-VS solution and suspended ibu-PLGA particles. In a parallel experiment, another vial with the same mixture composition, but without the peptide crosslinker of interest, was used as a control. The two vials were inverted at regular intervals until the mixture in one vial stopped flowing despite gravity indicating successful gelation. An example of the successful gelation of a typical hybrid hydrogel was captured in photographs of glass vials A1 and A2 (FIG. 2). […] This solid white appearance resulted from the white ibu-PLGA particles. In the absence of any peptide crosslinker, the precursor mixture in the control vial A2 remained free-flowing, indicating absence of gelation.

MMP-9 [5] = target: T1, MMP-9; assay: Degradation of plural protease-cleavable hydrogel, MMP-9 alone; type: biochemical
Description: (§2) A) Schematic of the mechanism of dual protease-responsive combinational hydrogel system. B) Photographs show the cleavability of H2-M2 combinational hydrogels over 24 hours (n=3). (i) Control, (ii) With HNE protease; (iii) With MMP-9 protease; and (iv) With both HNE and MMP-9 proteases. C) Quantification of the average number of PLGA particles released from combinational hydrogels in the presence of zero, single or dual proteases over 24 hours (n=3). Error bars represent s.e.m of n=3 replicates. p-values were determined by one-way ANOVA with Tukey post-hoc analysis. (***) and (ns) denote p≤0.001 and p≥0.05 (not significant) respectively.
Target sequence in this assay (P14780 94-707): as the sequence (P14780 94-707) above

[6] = system: RAW 264.7 murine macrophages; assay: WST-1 relative metabolic activity of macrophages treated with hydrogel releasates; type: cell-based; conditions: 0.6 mg/mL freely dissolved drug, equivalent dosage; 72 hours treatment
Description: RAW 264.7 murine macrophages were cultured in high glucose DMEM (Gibco Laboratories) supplemented with 10% FBS (Gibco Laboratories), and 1% penicillin/streptomycin (Gibco Laboratories) at 37° C. in 5% CO2 atmosphere. RAW 264.7 macrophages at passages of 20-30 were seeded in 96-well plates (Corning®) at an initial seeding density of 2×10^4 cells/well and incubated at 37° C. for 24 hours. A volume of 100 μL of each hybrid hydrogel (GEL-iP and scrGEL-iP) fabricated with 1.7% (w/v) of PEG and 5% (w/v) of ibuprofen-loaded PLGA microparticles was incubated in 500 μL of phenol red-free DMEM (Gibco Laboratories) culture medium for 2 hours in the presence and absence of 3 μg/ml of MMP-9 (FIG. 4A). […] Afterwards, the releasates were removed from the treated macrophages; and the in vitro metabolic activity of treated cells was evaluated using WST-1 cell proliferation assay (Abcam) as per manufacturer's protocol. […] A volume of 100 μL of this medium was then transferred into a new 96-well plate; and its absorbance at 450 nm and 690 nm was recorded using a microplate reader (SpectraMax M5). To calculate relative metabolic activity, all the absorbance values at 450 nm were subtracted by the values at the reference wavelength of 690 nm and the background absorbance to achieve corrected absorbance values. Afterward, the relative metabolic activity was calculated as follows: […]

HNE = target: T2, HNE (Homo sapiens, UniProt P08246); assay: Degradation of plural protease-cleavable hydrogel, HNE alone; type: biochemical
T2 sequence (P08246 30-267): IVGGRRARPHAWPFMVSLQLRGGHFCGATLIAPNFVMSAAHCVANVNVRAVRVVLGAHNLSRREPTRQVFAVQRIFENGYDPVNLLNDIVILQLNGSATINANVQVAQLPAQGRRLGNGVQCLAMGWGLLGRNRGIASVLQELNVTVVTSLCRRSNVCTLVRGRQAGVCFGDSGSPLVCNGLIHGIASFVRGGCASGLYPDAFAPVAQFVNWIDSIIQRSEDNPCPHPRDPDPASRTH
Description: as §2

Compound: CCCCCCCCCCCCCC(=O)O[C@@H]1[C@@H](C)[C@@]2(O)[C@@H](C=C(CO)C[C@]3(O)C(=O)C(C)=C[C@@H]23)[C@@H]2C(C)(C)[C@]12OC(C)=O [PMA, phorbol 12-myristate 13-acetate]
amount of MMP-9 secreted, difference 4 μg versus 0 μg PMA (MMP-9 [1]): 10 fold
amount of MMP-9 secreted, difference 4 μg versus 0.4 μg PMA (MMP-9 [1]): 5 fold
MMP activity (fluorescent signal), difference 4 μg versus 0.4 μg of PMA (MMPs): 1.9 fold

Compound: GPRSLSGRRCG (GPRSLSGRRCG)
specificity toward MMP-9 compared to cathepsin B and HNE (MMP-9 [2]): good specificity toward MMP-9

Compound: GCRD-AVRW↓LLTA-DRCG (GCRDAVRWLLTADRCG; GCRD-AVRWLLTA-DRCG) [peptide (8)]
gelation by crosslinking with PEG-VS ([4]; PBS/NaOH buffer): preventing gelation
gelation by crosslinking with PEG-VS ([4]; TEOA buffer): preventing gelation

Compound: GCRR-KGPRSLSGK-RRCG (GCRRKGPRSLSGKRRCG; GCRR-KGPRSLSGK-RRCG) [peptide (1)]
cleavability of hybrid hydrogel crosslinked with the peptide by MMP-9 (MMP-9 [3]): could be digested by MMP-9; also recorded: successful hydrogel cleavage by MMP-9

Compound: GCRD-KGPRS↓LSGK-DRCG (GCRDKGPRSLSGKDRCG; GCRD-KGPRSLSGK-DRCG) [(7)]
cleavability of hybrid hydrogel crosslinked with the peptide by MMP-9 (MMP-9 [3]): could be digested by MMP-9; also recorded: successful hydrogel cleavage by MMP-9

Compound: CC(C)Cc1ccc(C(C)C(=O)O)cc1 (stereo not drawn) [ibuprofen]
relative metabolic activity of macrophages [6]: ~0%

Compound: GCRR-GPQG↓IWGQ-RRCG (GCRRGPQGIWGQRRCG; GCRR-GPQGIWGQ-RRCG) [peptide (4), spacer GCRR]
cleavability of hybrid hydrogel crosslinked with the peptide by MMP-9 (MMP-9 [3]): could be digested by MMP-9; also recorded: successful hydrogel cleavage by MMP-9

The next lines start with results.

cleavability of hybrid hydrogel crosslinked with the peptide by MMP-9 (MMP-9 [3]): could be digested by MMP-9
Compound: GCRD-GPQG↓IWGQ-DRCG (GCRDGPQGIWGQDRCG; GCRD-GPQGIWGQ-DRCG) [peptide (5), spacer GCRD]

cleavability of hybrid hydrogel crosslinked with the peptide by MMP-9 (MMP-9 [3]): not cleaved
Compound: GCRR-AVRW↓LLTA-RRCG (GCRRAVRWLLTARRCG; GCRR-AVRWLLTA-RRCG) [peptide (3)]
gelation by crosslinking with PEG-VS ([4]; PBS/NaOH buffer): could induce gelation
gelation by crosslinking with PEG-VS ([4]; TEOA buffer): not

cleavability of hybrid hydrogel crosslinked with the peptide by MMP-9 (MMP-9 [3]): not cleaved
Compound: GCRD-LGRM↓GLPGK-DRCG (GCRDLGRMGLPGKDRCG; GCRD-LGRMGLPGK-DRCG) [peptide (6), spacer GCRD, same substrate as peptide (2)]

preferential cleavage of peptide substrate by MMP-9 (MMP-9 [5]): preferentially cleaved
Compound: GRCR-GPRS↓LSG-RCRG [M2]

cleavability of hybrid hydrogel crosslinked with the peptide by MMP-9 (MMP-9 [3]): not cleaved
Compound: GCRR-LGRM↓GLPGK-RRCG (GCRRLGRMGLPGKRRCG; GCRR-LGRMGLPGK-RRCG) [peptide (2), spacer GCRR, same substrate as peptide (6)]

preferential cleavage of peptide substrate by HNE (HNE): preferentially cleaved
Compound: GRCR-PMAV↓VQSVP-RCRG [H2]
